From publication PMC8079451, “Phosphopeptide interactions of the Nbs1 N-terminal FHA-BRCT1/2 domains” (Scientific Reports, 2021)
Substitutions are numbered along the chain they refer to. Square brackets hold non-standard residues; d marks the D form. Primed or numbered codes have the meaning given here. Ends that are not written are not given here. FITC′ = fluorescein isothiocyanate label; pT = C[C@@H](OP(=O)(O)O)[C@H](N)C(=O)O

Columns and labels:
Test in all cases: fluorescence polarisation; 100 nM FITC-labeled phosphopeptide with increasing hsNbs1(384); room temperature, 15 min incubation; 25 mM HEPES pH 7.4, 150 mM NaCl, 1 mM EDTA, 2 mM DTT, 0.05% Tween20, 0.1% BSA; one-site model
Settings in all cases: both partners purified
[1] = molecular target: T1, hsNbs1(384) K160A (human, UniProt O60934 1-384, K160A)
T1 construct: source: E. coli BL21(DE3) pLacI, purified as the wild type
T1 sequence (looked up): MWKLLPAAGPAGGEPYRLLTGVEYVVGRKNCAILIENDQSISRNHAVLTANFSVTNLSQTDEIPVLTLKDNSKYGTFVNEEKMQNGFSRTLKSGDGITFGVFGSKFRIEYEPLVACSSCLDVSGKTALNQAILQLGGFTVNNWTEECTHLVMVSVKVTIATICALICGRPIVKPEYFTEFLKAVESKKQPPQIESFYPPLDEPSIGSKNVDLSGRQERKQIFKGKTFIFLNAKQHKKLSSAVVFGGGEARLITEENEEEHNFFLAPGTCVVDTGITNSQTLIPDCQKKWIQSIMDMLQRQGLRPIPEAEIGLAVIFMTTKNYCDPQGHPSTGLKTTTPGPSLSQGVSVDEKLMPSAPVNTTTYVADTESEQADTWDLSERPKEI

[2] = molecular target: T2, hsNbs1(384) R43A (human, UniProt O60934 1-384, R43A)
T2 construct: source: E. coli BL21(DE3) pLacI, purified as the wild type
T2 sequence (looked up): T1 sequence (looked up) with R43A, A160K

[3] = molecular target: T3, hsNbs1(384) R28A (human, UniProt O60934 1-384, R28A)
T3 construct: source: E. coli BL21(DE3) pLacI, purified as the wild type
T3 sequence (looked up): T1 sequence (looked up) with R28A, A160K

[4] = molecular target: T4, hsNbs1(384) S118G (human, UniProt O60934 1-384, S118G)
T4 construct: source: E. coli BL21(DE3) pLacI, purified as the wild type
T4 sequence (looked up): T1 sequence (looked up) with S118G, A160K

[5] = molecular target: T5, hsNbs1(384) K73A (human, UniProt O60934 1-384, K73A)
T5 construct: source: E. coli BL21(DE3) pLacI, purified as the wild type
T5 sequence (looked up): T1 sequence (looked up) with K73A, A160K

Kd [1]: 133 µM
Kd [2]: 29.2 µM
Kd [3]: 35.9 µM
Kd [4]: 149 µM
Kd [5]: 32.9 µM
Binder: {FITC′}-GGRYIPPN[pT]PENFWEVGFPEEQ [hsCtIP phosphopeptide R841YIPPNpTPENFWEVGFPEEQ860 with N-terminal FITC-Gly-Gly]
